Data from patent US20200345804A1.
Where no end group is shown, it is not given here. [ ]: non-standard residue; d: D form. NMeA = CN[C@@H](C)C(=O)O

Columns and labels:
[1] = biological target: BIR3 domain of XIAP (human, residues 253-347, N-terminal His tag) (human); assay: ITC
[2] = biological target: BIR3 domain of XIAP (human, residues 253-347, N-terminal His tag) (human); assay: ITC, difference to N-Me-AVPF-NH2
[3] = biological target: BIR3 domain of XIAP (human, residues 253-347, N-terminal His tag) (human); assay: DELFIA displacement of AVPI-Biotin
[4] = biological target: recombinant BIR3 domain of cIAP1 with N-terminal 6xHis tag (Artificial Sequence); assay: DELFIA displacement of AVPI-Biotin
[5] = biological target: recombinant BIR3 domain of cIAP2 with N-terminal 6xHis tag (Artificial Sequence); assay: DELFIA displacement of AVPI-Biotin
[6] = biological target: BIR3 domain of XIAP (human, residues 253-347, N-terminal His tag) (human); assay: ITC, full curve titration
[7] = biological target: recombinant BIR3 domain of cIAP2 with N-terminal 6xHis tag (Artificial Sequence); assay: DELFIA displacement, 2-h incubation
[8] = biological target: BIR3 domain of XIAP (human, residues 253-347, N-terminal His tag) (human); assay: DELFIA displacement, 2-h incubation
[9] = biological target: recombinant BIR3 domain of cIAP1 with N-terminal 6xHis tag (Artificial Sequence); assay: DELFIA displacement, 2-h incubation
[10] = biological target: BIR2 domain of XIAP (Artificial Sequence); assay: DELFIA displacement assay on XIAP BIR2
[11] = biological target: BIR3 domain of XIAP (human, residues 253-347, N-terminal His tag) (human); assay: DELFIA displacement of AVPI-Biotin; remark: listed apart in the source
Target sequence in this assay (chain, as listed by the source): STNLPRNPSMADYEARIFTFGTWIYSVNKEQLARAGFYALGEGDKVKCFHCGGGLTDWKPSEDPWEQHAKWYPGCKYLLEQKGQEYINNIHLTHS

[12] = biological target: recombinant BIR3 domain of cIAP1 with N-terminal 6xHis tag (Artificial Sequence); assay: DELFIA displacement of AVPI-Biotin; remark: listed apart in the source
Target sequence in this assay (chain, as listed by the source limits assumed): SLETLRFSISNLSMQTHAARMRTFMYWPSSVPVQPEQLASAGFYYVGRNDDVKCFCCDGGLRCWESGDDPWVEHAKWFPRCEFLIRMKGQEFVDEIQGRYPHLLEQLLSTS

[13] = biological target: recombinant BIR3 domain of cIAP2 with N-terminal 6xHis tag (Artificial Sequence); assay: DELFIA displacement of AVPI-Biotin; remark: listed apart in the source
Target sequence in this assay (chain, as listed by the source limits assumed): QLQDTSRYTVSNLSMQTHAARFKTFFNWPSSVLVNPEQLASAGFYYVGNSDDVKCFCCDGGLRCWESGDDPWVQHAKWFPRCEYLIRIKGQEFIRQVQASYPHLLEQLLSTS

Molecule | -TΔS [1] [kcal/mol] | Kd [1] [nM] | ΔH [1] [kcal/mol] | δ(-TΔS) [2] [kcal/mol] | δ(ΔH) [2] [kcal/mol] | other results
MeHN-A-F(OSO2F)-P-F-CONH2 (peptide) |  |  |  |  |  | IC50 [7]: 343 nM
compound 10 (N-Me-Ala-P2-Pro-Phe-NH2, P2 = (2F-4CF3)Phe) (peptide) | -1.8 | 194 | -7.4 | -0.8 | 0.4 | 
MeNH-A-Dap(4-VSB)P-F-CONH2 (peptide) |  |  |  |  |  | IC50 [8]: 31 nM; IC50 [9]: 4.3 nM; IC50 [7]: 1.3 nM
N-Me-Ala-(p-phosphonomethyl)Phe-Pro-Phe-NH2 (peptide) |  |  |  | 4 | -4.4 | IC50 [3]: 35 nM
MeNH-A-hF(OSO2F)-P-F-CONH2 (peptide) |  |  |  |  |  | IC50 [8]: 197 nM; IC50 [9]: 26 nM; IC50 [7]: 188 nM
compound 8 (N-Me-Ala-P2-Pro-Phe-NH2, P2 = Cyclohexyl Glycine) (peptide) | -1.4 | 354 | -7.8 | -0.4 | 0 | 
compound 13 (N-Me-Ala-P2-Pro-Phe-NH2, P2 = (p-guanidino)Phe) (peptide) | -2.3 | 182 | -6.9 | -1.3 | 0.9 | 
compound 7 (N-Me-Ala-P2-Pro-Phe-NH2, P2 = (3Cl-5CF3)Phe) (peptide) | -1.3 | 133 | -8 | -0.3 | -0.2 | 
compound 3 (N-Me-Ala-P2-Pro-Phe-NH2, P2 = (4-NO2)-Phe) (peptide) | -0.1 | 280 | -8.9 | 0.9 | -1.1 | 
AVPI (peptide) | -4 | 825 |  |  |  | IC50 [3]: 957 nM; IC50 [5]: 320 nM; ΔH [6]: -4.3 kcal/mol; ΔG [1]: -8.3 kcal/mol
MeHN-A-Dap(3-FSB)-P-F-NH2 (peptide) |  |  |  |  |  | IC50 [3]: 47.3 nM
NMe-Ala-pSFB-Dap-Pro-Phe-NH2 (peptide) |  |  |  |  |  | IC50 [10]: 2220 nM
compound 5 (N-Me-Ala-P2-Pro-Phe-NH2, P2 = (3Cl-4CF3)Phe) (peptide) | -0.9 | 190 | -8.3 | 0.1 | -0.5 | 
compound 12 (N-Me-Ala-P2-Pro-Phe-NH2, P2 = (4-OCF3)Phe) (peptide) | -1.9 | 227 | -7.1 | -0.9 | 0.7 | 
MeHN-A-Dap(p-OSO2F-Benzamide)-P-F-CONH2 (peptide) |  |  |  |  |  | IC50 [9]: 335 nM; IC50 [7]: > 1000 nM
MeHN-A-Dap(4-FSBz)-P-F-CONH2 (peptide) |  |  |  |  |  | IC50 [8]: 17.1 nM; IC50 [9]: 18.6 nM; IC50 [7]: 85.7 nM

Second part, led by results:

-TΔS [1] [kcal/mol] | Kd [1] [nM] | ΔH [1] [kcal/mol] | δ(-TΔS) [2] [kcal/mol] | δ(ΔH) [2] [kcal/mol] | Molecule | other results
-1.4 | 230 | -7.7 | -0.4 | 0.1 | compound 9 (N-Me-Ala-P2-Pro-Phe-NH2, P2 = Dab) (peptide) | 
-1.2 | 155 | -8.1 | -0.2 | -0.3 | compound 6 (N-Me-Ala-P2-Pro-Phe-NH2, P2 = (3F-4CF3)Phe) (peptide) | 
3.04 | 205 |  |  |  | Ala-pTyr-Pro-(4F)Phe-NH2 (peptide) | IC50 [3]: 40.1 nM; IC50 [4]: 124 nM; IC50 [5]: 143 nM; ΔH [6]: -12.2 kcal/mol; ΔG [1]: -9.13 kcal/mol
 |  |  | 0 | -0.5 | compound 2 (N-Me-Ala-P2-Pro-Phe-NH2, P2 = (4SO3^-)-Phe) (peptide) | IC50 [4]: 144 nM
-3.3 | 81 | -6.4 | -2.3 | 1.4 | compound 14 (N-Me-Ala-P2-Pro-Phe-NH2, P2 = (2F-4CF3-5Me)Phe) (peptide) | 
-1.9 | 213 | -7.2 | -0.9 | 0.6 | compound 11 (N-Me-Ala-P2-Pro-Phe-NH2, P2 = Phe(4-CF3)) (peptide) | 
 | 175 |  |  |  | AVPF | ΔH [6]: -7.64 kcal/mol; IC50 [11]: 60 nM; IC50 [12]: 50.9 nM; IC50 [13]: 168 nM
-1 |  | -7.8 |  |  | [NMeA]VPF-NH2 [N-Me-AVPF-NH2] | 
